Experimental data published in US20250313626A1 (HARBOUR BIOMED SHANGHAI, published 2025).
Positions count from the first letter of the chain named.

T1: CD200R1a on PathHunter Jurkat CD200R1a signaling cells (Eurofins DiscoverX, 93-1136C19) (human, UniProt Q8TD46 25-348)
T1 sequence: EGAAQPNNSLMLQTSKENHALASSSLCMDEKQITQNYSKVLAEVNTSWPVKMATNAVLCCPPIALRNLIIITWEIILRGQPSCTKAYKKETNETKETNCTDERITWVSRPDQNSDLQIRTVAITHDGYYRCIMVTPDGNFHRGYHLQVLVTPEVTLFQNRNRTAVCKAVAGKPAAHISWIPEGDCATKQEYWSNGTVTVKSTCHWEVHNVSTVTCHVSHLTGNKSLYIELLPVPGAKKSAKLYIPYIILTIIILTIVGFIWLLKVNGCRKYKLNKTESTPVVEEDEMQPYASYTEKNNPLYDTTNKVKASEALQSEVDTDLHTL

T2: human CD200R1 isoform a on CHOK1 cells (CHOK1/hCD200R1a) (human, UniProt Q8TD46 25-348)
T2 construct: also called CHOK1/CD200R1a
T2 sequence: T1 sequence

T3: cell surface glycoprotein CD200 receptor 2 isoform 1 precursor CD200R1L recombinant protein (Sino … (human, UniProt Q6Q8B3 24-239))
T3 construct: Bought protein; also called hCD200R1L; recombinant human CD200R1L protein
T3 sequence: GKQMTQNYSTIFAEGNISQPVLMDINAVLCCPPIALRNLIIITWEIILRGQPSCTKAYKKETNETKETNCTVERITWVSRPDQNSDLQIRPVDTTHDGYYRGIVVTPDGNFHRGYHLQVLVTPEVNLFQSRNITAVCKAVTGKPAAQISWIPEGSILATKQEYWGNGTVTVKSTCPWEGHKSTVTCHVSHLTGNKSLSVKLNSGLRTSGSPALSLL

T4: human CD200R1a protein (soluble recombinant) (human, UniProt Q8TD46 29-265)
T4 construct: Soluble protein used in BLI; also called human CD200R1 isoform a; not shown: His tag implied by capture on anti-Penta-HIS biosensors
T4 sequence: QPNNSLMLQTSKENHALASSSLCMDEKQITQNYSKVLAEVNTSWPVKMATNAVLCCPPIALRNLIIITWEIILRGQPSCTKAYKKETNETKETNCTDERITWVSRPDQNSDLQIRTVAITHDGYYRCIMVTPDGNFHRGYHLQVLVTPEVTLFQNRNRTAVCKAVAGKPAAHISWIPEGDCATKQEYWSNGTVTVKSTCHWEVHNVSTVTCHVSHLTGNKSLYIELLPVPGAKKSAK

B1: PR006480 (antibody, human IgG1, kappa, L234A L235A)
heavy: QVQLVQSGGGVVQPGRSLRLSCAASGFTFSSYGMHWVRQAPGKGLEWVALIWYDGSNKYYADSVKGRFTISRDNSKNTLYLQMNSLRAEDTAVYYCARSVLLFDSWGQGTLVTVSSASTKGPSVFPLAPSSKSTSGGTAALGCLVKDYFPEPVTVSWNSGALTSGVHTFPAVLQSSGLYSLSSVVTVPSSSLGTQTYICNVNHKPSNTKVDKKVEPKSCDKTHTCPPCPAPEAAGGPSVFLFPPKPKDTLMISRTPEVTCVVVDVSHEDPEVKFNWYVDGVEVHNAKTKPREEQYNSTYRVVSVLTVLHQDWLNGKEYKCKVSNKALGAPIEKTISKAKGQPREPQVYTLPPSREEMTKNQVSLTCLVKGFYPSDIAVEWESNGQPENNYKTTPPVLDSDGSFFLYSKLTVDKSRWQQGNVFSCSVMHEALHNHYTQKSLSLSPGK
light: DIQMTQSPPSLSASVGDRVTITCRASQSISSYLNWFQQKAGKAPKLLISATSNLQSGVPSRFSGSGSGTDFTLTISSLQPEDLATYYCQQSYSSPYTFGQGTKVEIKRTVAAPSVFIFPPSDEQLKSGTASVVCLLNNFYPREAKVQWKVDNALQSGNSQESVTEQDSKDSTYSLSSTLTLSKADYEKHKVYACEVTHQGLSSPVTKSFNRGEC
notes: also called PR6480
B2: PR007221 (antibody, human IgG1, kappa)
heavy: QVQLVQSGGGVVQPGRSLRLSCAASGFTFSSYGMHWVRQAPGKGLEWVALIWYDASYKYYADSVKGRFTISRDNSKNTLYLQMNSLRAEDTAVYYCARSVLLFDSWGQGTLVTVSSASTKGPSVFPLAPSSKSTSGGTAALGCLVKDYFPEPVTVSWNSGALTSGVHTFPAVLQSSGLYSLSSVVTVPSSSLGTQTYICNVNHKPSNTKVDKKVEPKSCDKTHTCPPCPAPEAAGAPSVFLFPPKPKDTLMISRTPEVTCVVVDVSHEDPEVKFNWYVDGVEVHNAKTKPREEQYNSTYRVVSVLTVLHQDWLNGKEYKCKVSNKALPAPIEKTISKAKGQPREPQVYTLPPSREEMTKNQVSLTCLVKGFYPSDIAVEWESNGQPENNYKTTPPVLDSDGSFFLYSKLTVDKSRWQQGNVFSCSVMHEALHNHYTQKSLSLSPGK
light: B1 light with M4L, S91T, Y92L
notes: PTM variant of PR006895 (human IgG1)
B3: PR007223 (antibody, human IgG1, kappa)
heavy: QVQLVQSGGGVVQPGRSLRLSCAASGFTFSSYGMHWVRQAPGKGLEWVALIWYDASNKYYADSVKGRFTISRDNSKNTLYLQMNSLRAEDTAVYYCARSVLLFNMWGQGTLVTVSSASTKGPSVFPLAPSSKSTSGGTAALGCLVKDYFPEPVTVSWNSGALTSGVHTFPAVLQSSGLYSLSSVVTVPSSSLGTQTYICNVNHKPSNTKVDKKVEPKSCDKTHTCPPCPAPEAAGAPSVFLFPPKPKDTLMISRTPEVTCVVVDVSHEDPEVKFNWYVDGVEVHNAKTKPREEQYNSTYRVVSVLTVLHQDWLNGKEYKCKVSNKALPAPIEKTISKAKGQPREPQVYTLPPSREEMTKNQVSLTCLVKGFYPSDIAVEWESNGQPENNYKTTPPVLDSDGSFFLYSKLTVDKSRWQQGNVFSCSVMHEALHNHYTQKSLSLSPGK
light: B1 light with M4L, S91T
notes: as for B2
B4: PR005509 (antibody, human IgG1, kappa, L234A L235A, V domains shown)
VH: QVQLVESGGGVVQPGRSLRLSCAASGFTFSSYGFHWVRQAPGKGLEWLGLIWSDGSNKYYADSVKGRFTISRDNSKNTLYLQMNSLRAEDTAVYYCARDRIVGAGFDYWGQGTLVTVSS
VL: not shown
B5: PR007973 (antibody, human IgG1, kappa, V domains shown)
VH: B4 VH with L50I, G55A, A104E
VL: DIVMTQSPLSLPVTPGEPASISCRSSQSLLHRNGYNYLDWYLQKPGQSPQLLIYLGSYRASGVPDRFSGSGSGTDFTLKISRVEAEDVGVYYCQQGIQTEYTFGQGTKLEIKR
notes: PTM variant of PR006839 (human IgG1)
B6: PR005474 (antibody, human IgG1, kappa, L234A L235A, V domains shown)
VH: B4 VH with G26A, F34M, L48V, G49A, S53N, Y59F, Y80F, V102L
VL: not shown
B7: PR002906 (antibody, V domains shown)
VH: QVQLQESGPGLVKPSETLSLTCTVSGYTITSGYDWSWIRQPPGKGLEWIGYINYGGSTNYKPSLGSRVTISVDTSKNQFSLKLSSVTAADTAVYYCARYNEYKSYIYDWYFDFWGQGTLVTVSS
VL: DIQMTQSPSSLSASVGDRVTITCKASKNIRSYLAWYQQKPGKAPKLLIYSGSTLHSGVPSRFSGSGSGTDFTLTISSLQPEDFATYYCQQHHEYPLTFGQGTKVEIKR
notes: also called recombinant IgG1 antibody of huDX182

Key:
[1] = target: T1, CD200R1a on PathHunter Jurkat CD200R1a …; experiment: cell-based or functional assay
[2] = target: T2, human CD200R1 isoform a on CHOK1 cells …; experiment: flow cytometry, CHOK1/hCD200R1a cells (FITC-Mean); table beside the curves, head without unit, x axis Log [Ab] (nM)
[3] = target: T2, human CD200R1 isoform a on CHOK1 cells …; experiment: flow cytometry blocking assay: antibody titrated against biotin-labelled human CD200 binding to CHOK1/hCD200R1a cells; head prints EC50 without unit, x axis Log [Ab] (nM), y axis Inhibition %
Protocol: In brief, CHOK1/hCD200R1a cells were digested and resuspended in 2% BSA in PBS. […] The cells were placed at 4° C. and incubated for 1 hour in the dark. […] 100 μL/well of pre-cooled PBS containing 2% BSA was added to rinse the cells twice, centrifugation was performed at 500 g, 4° C. for 5 minutes, and the supernatant was discarded. Fluorescent secondary antibody (PE Streptavidin, BD, Cat #: 554061, 1:200) was added at 100 μL/well, and incubation was performed at 4° C. for 30 minutes in the dark. The cells were washed twice with 200 μL/well of pre-cooled PBS, and were centrifuged at 500 g, 4° C. for 5 minutes, and the supernatant was discarded. Finally, 200 μL/well of pre-cooled PBS was used to resuspend the cells, and the fluorescence signal values were read using ACEA Novocyte 3000 flow cytometer. IC50 values were calculated.

[4] = target: T3, cell surface glycoprotein CD200 …; experiment: ELISA on plate-coated recombinant human CD200R1L
Protocol: In specific, the cell surface glycoprotein CD200 receptor 2 isoform 1 precursor CD200R1L recombinant protein (Sino Biologicals, 11620-H08H, SEQ ID NO:174) were diluted with PBS to 1 μg/mL, and added to a 96-well plate (Corning, #9018) at 100 μl per well, and incubated overnight at 4° C. After the liquid was discarded, the plate was washed 3 times with PBST buffer (pH 7.4, containing 0.05% tween-20), 250 μl 2% BSA blocking solution was added into the plate and incubated at 37° C. for 1 hour. The blocking solution was discarded and the plate was washed 3 times with PBST buffer (pH 7.4, containing 0.05% Tween-20). The anti-CD200R1 antibodies were diluted and added at 100 µl/well, incubated at 37° C. for 1 hour, with isotype antibody as a control. After the plate was washed 3 times with PBST buffer (pH 7.4, containing 0.05% Tween-20), goat anti-human HRP secondary antibody (Invitrogen, #A18805) was diluted 5000 times, added into the plate and incubated for 1 hour at 37° C. in the dark. After the plate was washed with PBST buffer (pH 7.4, containing 0.05% tween-20) for 3 times, 100p/well of TMB (Biopanda, #TMB-S-003) was add and the plate was placed in the dark at room temperature for about 30 minutes; stop solution (BBI life sciences, #E661006-0200) was added at 50p/well to each well to terminate the reaction, and the absorbance (OD450) at 450 nm was measured in a microplate reader (PerkinElemer, #Enspire).

[5] = target: T4, human CD200R1a protein (soluble …); experiment: BLI in-tandem competition on His-captured human CD200R1a; row = 1st Ab (400 nM); competitor (2nd Ab) PR007221
Protocol: To determine if the anti-CD200R1 antibodies bind to human CD200R1a on different or approximate binding epitopes, epitope competition experiments for the anti-CD200R1 antibodies were performed by the ForteBlio Octet® RED96e platform. […] The in-tandem competition assay format was applied, and it contained two association steps. Firstly, the antigen-loaded biosensors bound to each antibody (i.e., First antibody, 1st Ab) at a saturating concentration of 400 nM for 300 seconds to reach equilibrium and then secondly bound to the competing antibodies (i.e., Second antibody, 2nd Ab) of 400 nM for 300 seconds. The second binding signals are recorded as the 100% signal of each antibody when the first antibodies are replaced by kinetic buffer. All the binding data were analyzed using ForteBlio Data Analysis 11.0 software. The inhibition rate was calculated by the following formula: […]

| Binder | IC50 of the inhibition of CD200-induced PathHunter Jurkat CD200R1a luminescence (CHOK1/hCD200 cells as CD200 source); head without unit, x axis Log [Ab] (nM) [1] [nM] | EC50 [2] [pM] | EC50 [3] [pM] | binding result [4] | Inhibition ratio (%) [5] [%] |
| --- | --- | --- | --- | --- | --- |
| B1 | 4.55 | 124 | 164 | – | – |
| B2 | – | 172 | 194 | no binding (tested: 100 nM) | 100 |
| B3 | – | 133 | 122 | no binding (tested: 100 nM) | 101 |
| B4 | 2.47 | – | – | – | – |
| B5 | – | – | – | no binding (tested: 100 nM) | 100 |
| B6 | 7.75 | – | – | – | – |
| B7 | – | 292 | 479 | – | – |
